Biological target: T1, Soluble CD28-Ig (extracellular domain of human CD28 fused to the Fc portion of human IgG1) (human, UniProt P10747 19-152, biotin-conjugated (NHS-biotin) in the FACS binding assays)
T1 construct: extracellular domain; bought from R&D Systems; also called sCD28-Ig; CD28-Ig Fc; not shown: Fc portion of human IgG1
Assay: competitive FACS on transfected cells, biotin-sCD28-Ig with FITC-sCTLA-4-Ig; grade 0-2 of CD28/CTLA-4 ratio vs WT hB7-1

Row | Binder | Binding Score
1 | Round 2 CD28B4-3 (ligand) ITPKSVTKRVKETVMLSCDYNTSTEELTSLRIYWQKDSKMVLAILPGKVQVWPEYKNRTITDMNDNPRIVILALRLSDSGTYTCVIQKPVLKGAYKLEHLTSVRLMIRADFPVPTINDLGNPSPNIRRLICSTSGGFPRPHLYWLENGEELNATNTTLSQDPETKLYMISSELDFNMTSNHSFLCLVKYGDLTVSQTFYWQESKPTPSANQHLTWTIIIPVSAFGISVIIAVILTCLTCRNAAIRRQRRENEVEMQSCSQSP | 1
2 | Round 2 CD28D5-6 (ligand) ITPKSVTKRVKETVMLSCDYSTSTEELTSLRIYWQKDSKMVLAILPGKVQVWPEYKNRTITDMNDNPRIVILALRLSDSGTYTCVIQKPVLKGAYKLEHLTSVRLMIRADFPVPTINDLGNPSPNIRRLICSTSGGFPRPHLYWLENGEELNATNTTLSQDPETKLYMISSELDFNMTSNHSFLCLVKYGDLTVSQSFYWQESKPTPSANQHLTWTIIIPVSAFGISVIIAVILTCLTCRNAAIRRQRRENEVEMQSCSQSP | 0
3 | Round 2 CD28B6-3 (ligand) ITPKSVTKRVKETVMLSCDYNTSTEELTSLRIYWQKDSKMVLAILPGKVQVWPEYKNRTITDMNDNPRIVILALRLSDSGTYTCVIQKPDLKGAYKLEHLTSVRLMIRADFPVPTINDLGNPSPNIRRLICSTSGGFPRPHLYWLENGEELNATNTTLSQDPETKLYMISSELDFNMTSNHSFLCLVKYGDLTVSQTFYWQESKPTPSANQHLTWTIIIPVSAFGISVIIAVILTCLTCRNAAIRRQRRENEVKMQSCSQSP | 1
4 | Round 2 CD28E8-6 (ligand) ITPKSVTKRVKETVMLSCDYNTSTEELTSLRIYWQKDSKMVLAILPGKVQVWPEYKNRTITDMNDNPRIVILALRLSDSGTYTCVIQKPVLKGAYKLEHLTSVRLMIRADFPVPTINDLGNPSPNIRRLICSTSGGFPRPHLYWLENGEELNATNTTVSQDPETKLYMISSELDFNTTSNHSFLCLVKYGDLTVSQTFYWQESKPTPSANQHLTWTIIIPVSAFGISVIIAVILTCLTCRNAAIRRQRRENEVEMQSCSQSP | 0
5 | Round 2 CD28E2-5* (ligand) TTPKSVTKRVKETVMLSCDYNTSTEELTSLRIYWQKDSKMVLAILPGKVQVWPEYKNRTITDMNDNPRIVILALRPSDSGTYTCVIQKPVLKGAYKLEHLASVRLMIRADFPVPTINDLGNPSPNIRRLICSTSGGFPRPHLYWLENGEELNATNTTLSQDPETKLYMISSELDFNMTSNHSFLCLVKYGDLTVSQTFYWQESKPTPSANQHLTWTIIIPVSAFGISVIIAVILTCLTCRNAAIRRQRRENEVEMQSCSQSP | 0
6 | Round 2 CD28BP-14 (ligand) GISQVTKSVKEMAALSCDYNISIDELARMRIYWQKDQQMVLSIISGQVEVWPEYKNRTITDMNDNPRIVILALRLSDSGTYTCVIQKPVLKGAYKLEHLASVRLMIRADFPVPTINDLGNPSPNIRRLICSTSGGFPRPHLYWLENGEELNATNTTVSQDPGTELYMISSELDFNVTNNHSIVCLIKYGELSVSQIFPWSKPKQEPPIDQLPFWVIIPVSGALVLTAVVLYCLACRHVARWKRTRRNEETVGTERLSPIYLGSAQSSG | 2
7 | Round 2 CD28C11-5 (ligand) ITPKSVTKRVKETVMLSCDYNTSTEELTSLRIYWQKDSKMVLAILPGKVQVWPEYKNRTITDMNDNPRIVILALRLSDSGTYTCVIQKPVLKGAYKLEHLTSVRLMIRADFPVPTINDLGNPSPNIRRLICSTSGGFPRPHLYWLENGEELNATNTTVSQDPGTELYMISSELDFNVTNNHSIACLIKYGELSVSQIFPWSKPKQEPPIDQLPFWVIIPVSGALVLTAVVLYCLACRHVARWKRTRRNEETVGTERLSPIYLGSAQSSG | 2
8 | Round 2 CD28D8-9 (ligand) ITPKSVTKRVKETVMLSCDYSTSTEELTSLRIYWQKDSKMVLAILPGKVQVWPEYKNRTITDMNDNPRIVILALRLSDSGTYTCVIQKPVLKGAYKLEHLTSVRLMIRADFPVPTINDLGNPSPNIRRLICSTSGGFPRPHLYWLENGEELNATNTTVSQDPGTELYMISSELDFNVTNNHSIVCLIKYGELSVSQIFPWSKPKQEPPIDQLPFWVIIPVSGALVLTAVVLYCLACRHVARWKRTRRNEETVGTERLSPIYLGSAQSSG | 1
9 | Round 2 CD28E5-2 (ligand) ITPKSVTKRVKETVMLSCDYNTSTEELTSLRIYWQKDSKMVLAILPGKVQVWPEYKNRTITDMNDNPRIVILALRLSDSGTYTCVIQKPDLKGAYKLEHLASVRLMIRADFPVPTINDLGNPSPNIRRLICSTSGGFPRPHLYWLENGEELNATNTTLSQDPETKLYMISSELDFNVTNNRSIVCLIKYGELSVSQIFPWSKPKQEPPIDQLPFWVIIPVSGALVLTAVVLYCLACRHVARWKRTRRNEETVGTERLSPIYLGSAQSSG | 0
10 | Round 2 CD28D2-9 (ligand) ITPKSVTKRVKETVMLSCDYNTSTEELTSLRIYWQKDSKMVLAILPGKVQVWPEYKNRTITDMNDNPRIVILALRLSDSGTYTCVIQKPVLKGAYKLEHLTSVRLMIRADFPVPTINDLGNPSPNIRRLICSTSGGFPRPHLYWLENGEELNATNTTLSQDPETELYMISSELDFNVTNNHSIVCLIKYGELSVSQIFPWSKPKQEPPIDQLPFWVIIPVSGALVLTAVVLYCLACRHVARWKRTRRNEETVGTERLSPIYLGSAQSSG | 1
11 | Round 2 CD28E9-6 (ligand) ITPKSVTKRVKETVMLSCDYNTSTEELTSLRIYWQKDSKMVLAILPGKVQVWPEYKNRTITDMNDNPRIVILALRLSDKGTYTCVIQKPDLKGAYKLEHLASVRLMIRADFPVPTINDLGNPSPNIRRLICSTSGGFPRPHLYWLENGEELNATNTTVSQDPGTELYMISSELDFNVTNNHSIVCLIKYGELSVSQIFPWSKPKQEPPIDQLPFWVIIPVSGALVLTAVVLYCLACRHVARWKRTRRNEETVGTERLSPIYLGSAQSSG | 0
12 | Round 2 CD28E2-4 (ligand) ITPKSVTKRVKETVMLSCDYSTSTEELTSLRIYWQKDSKMVLAILPGKVQVWPEYKNRTITDMNDNPRIVILALRLSDKGTYTCVIQKPVLKGAYKLEHLASVRLMIRADFPVPTINDLGNPSPNIRRLICSTSGGFPRPHLYWLENGEELNATNTTVSQDPGTELYMISSELDFNVTNNHSIVCLIKYGELSVSQIFPWSKPKQEPPIDQLPFWVIIPVSGALVLTAVVLYCLACRHVARWKRTRRNEETVGTERLSPIYLGSAQSSG | 1

Other lines, results leading:

Row | Binding Score | Binder
13 | 0 | Round 2 CD28F3-1 (ligand) ITPKSVTKRVKETVMLSCDYNTSTEELTSLRIYWQKDSKMVLAILPGKVQVWPEYKNRTITDMNDNPRIVILALRLSDSGTYTCVIQKPDLKGAYKLEHLTSVRLMIRADFPVPTINDLGNPSPNIRRLICSTSGGFPRPHLYWLENGKELNATNTTLSQDPETKLYMISSELDFNMTSNHSFLCLVKYGDLTVSQTFYWQESKPTPSANQHLTWTIIIPVSAFGISVIIAVILTCLTCRNAAIRRQRRENEVEMQSCSQSP
14 | 1 | Round 2 CD28G2-8 (ligand) ITPKSVTKRVKETVMLSCDYNTSTEELTSLRIYWQKDSKMVLAILPGKVQVWPEYKNRTITDMNDNPRIVILALRLSDSGTYTCVIQKPVLKGAYKLEHLASVRLMIRADFPVPSINDLGNPSPNIRRLICSTSGGFPRPHLYWLENGEELNATNTTVSQDPGTELYMISSELDFNVTNNHSIVCLIKYGELSVSQIFPWSKPKQEPPIDQLPFWVIIPVSGALVLTAVVLYCLACRHVARWKRTRRNEETVGTERLSPIYLGSAQSSG
15 | 1 | Round 2 CD28E10-6 (ligand) ITPKSVTKRVKETVMLSCDYNTSTEELTSLRIYWQKDSKMVLAILPGKVQVWPEYKNRTITDMNDNPRIVILALRLSDSGTYTCVIQKPVLKGAYKLEHLASVRLMIRADFPVPTINDLGNPSPNIRRLICSTSGGFPRPHLYWLENGEELNATNTTLSQDPETELYMISSELDFNVTNNHSIVCLIKYGELSVSQIFPWSKPKQEPPIDQLPFWVIIPVSGALVLTAVVLYCLACRHVARWKRTRRNEETVGTERLSPIYLGSAQSSG
16 | 1 | Round 2 CD28F8-4 (ligand) ITPKSVTKRVKETVMLSCDYSTSTEELTSLRIYWQKDSKMVLAILPGKVQVWPEYKNRTITDMNDNPRIVILALRLSDSGTYTCVIQKPVLKGAYKLEHLASVRLMIRADFPVPTINDLGNPSPNIRRLICSTSGGFPRPHLYWLENGEELNATNTTLSQDPETKLYMISSELDFNVTNNHSIVCLIKYGELSVSQIFPWSKPKQEPPIDQLPFWVIIPVSGALVLTAVVLYCLACRHVARWKRTRRNEETVGTERLSPIYLGSAQSSG
17 | 0 | Round 2 CD28F3-6 (ligand) ITPKSVTKRVKETVMLSCDYSTSTEELTSLRIYWQKDSKMVLAILPGKVQVWPEYKNRTITDMNDNPRIVILALRLSDSGTYTCVIQKPDLKGAYKLEHLTSVRLMIRADFPVPTINDLGNPSPNIRRLICSTSGGFPRPHLYWLENGEELNATNTTLSQDPETKLYMISSELDFNVTNNHSIVCLIKYGELSVSQIFPWSKPKQEPPIDQLPFWVIIPVSGALVLTAVVLYCLACRHVARWKRTRRNEETVGTERLSPIYLGSAQSSG
18 | 2 | Round 2 CD28F7-2 (ligand) ITPKSVTKRVKETVMLSCDYSTSTEELTSLRIYWQKDSKMVLAILPGKVQVWPEYKNRTITDMNDNPRIVILALRLSDSGTYTCVIQKPVLKGAYKLEHLASVRLMIRADFPVPTINDLGNPSPNIRRLICSTSGGFPEPRLAWMEDGEELNAVNTTVDQDLDTELYSVSSELDFNVTNNHSIVCLIKYGELSVSQIFPWSKPKQEPPIDQLPFWVIIPVSGALVLTAVVLYCLACRHVARWKRTRRNEETVGTERLSPIYLGSAQSSG
19 | 1 | Round 2 CD28H11-3 (ligand) ITPKSVTKRVKETVMLSCDYNTSTEELTSLRIYWQKDSKMVLAILPGKVQVWPEYKNRTITDMNDNPRIVILALRLSDSGTYTCVIQKPVLKGAYKLEHLASVRLMIRADFPVPTINDLGNPSPNIRRLICSTSGGFPRPHLYWLENGEELNATNTTLSQDPETKLYMISSELDFNVTNNHSIVCLIKYGELSVSQIFPWSKPKQEPPIDQLPFWVIIPVSGALVLTAAVLYCLACRHVARWKRTRRNEETVGTERLSPIYLGSAQSSG

Reference: patent US20100261660A1 (published 2010)
